What was measured:
[1] = biological target: T1, gp100 peptide on HLA-A*02:01 (human); experiment: multimer staining
T1 peptide: ITDQVPFSV

[2] = biological target: none (gp100-negative cells) peptide on HLA-A2 (human); experiment: RNA-electroporated human PBL with HLA-A2+ gp100-negative melanoma A375; 31 pg/ml for transduced PBL in Table 7; text: did not recognize melanoma cell lines not expressing gp100; full-length, on cells; conditions: chains Valpha:Vbeta

binding result [1]: no recognition | IFN-gamma release [2]: 45 pg/mL
B1: Sp(0.01)A TCR (TCR, V domains shown)
Valpha: QQKVQQSPESLIVPEGAMTSLNCTFSDSASQYFAWYRQHSGKAPKALMSIFSNGEKEEGRFTIHLNKASLHFSLHIRDSQPSDSALYLCAANNYAQGLTFGLGTRVSVFP
Vbeta: EAAVTQSPRSKVAVTGGKVTLSCHQTNNHDYMYWYRQDTGHGLRLIHYSYVADSTEKGDIPDGYKASRPSQENFSLILELASLSQTAVYFCASSPGGGGEQYFGPGTRLTVL

— US20140219978A1 (published 2014)
